Laboratory results: PMC5823870 (Scientific Reports, 2018)

Tests used:
O=S(O)(O)=S = test: purified protein; conditions: 12 mM potassium phosphate pH 7.4, 25 °C, cyanide 12 mM as sulfur acceptor (methods print potassium cyanate), thiosulfate 0 to 100 mM
[1] = target: Blh DUF442 domain (ST domain) (Xylella fastidiosa, UniProt Q9PFB0); conditions: 12 mM potassium phosphate pH 7.4, 25 °C; 12 mM thiosulfate; cyanide as sulfur acceptor
Chain of Blh DUF442 domain (ST domain) (Q9PFB0 1-141 limits assumed): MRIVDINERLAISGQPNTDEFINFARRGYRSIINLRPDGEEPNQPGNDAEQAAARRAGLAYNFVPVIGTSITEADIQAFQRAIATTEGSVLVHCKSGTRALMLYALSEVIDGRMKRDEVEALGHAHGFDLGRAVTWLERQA

Row | Molecule | Km (O=S(O)(O)=S) [mM] | rhodanese assay, iron-thiocyanate absorbance at 460 nm [1]
1 | full-length Blh (Xylella fastidiosa 9a5c) | 6.2 | 
2 | O=S(=O)(O)S [thiosulfate] |  | catalyze the transfer of the sulfane sulfur of thiosulfate to cyanide
